Data published in US20100003237.

Target: Soluble rat tail collagen Type I (UniProt P02454)

Histidine (His)-tagged purified recombinant human cathepsin-L (R&D Systems, Cat# 952-CY), sequence (chain, as listed by the source): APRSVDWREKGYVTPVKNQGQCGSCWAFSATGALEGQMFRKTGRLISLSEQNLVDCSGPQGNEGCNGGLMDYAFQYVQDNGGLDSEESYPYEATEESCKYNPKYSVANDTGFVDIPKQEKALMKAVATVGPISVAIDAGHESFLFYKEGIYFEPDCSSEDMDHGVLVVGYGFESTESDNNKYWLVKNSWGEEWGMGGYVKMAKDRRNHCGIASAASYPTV
cathepsin D (R&D systems, activated), sequence (chain, as listed by the source): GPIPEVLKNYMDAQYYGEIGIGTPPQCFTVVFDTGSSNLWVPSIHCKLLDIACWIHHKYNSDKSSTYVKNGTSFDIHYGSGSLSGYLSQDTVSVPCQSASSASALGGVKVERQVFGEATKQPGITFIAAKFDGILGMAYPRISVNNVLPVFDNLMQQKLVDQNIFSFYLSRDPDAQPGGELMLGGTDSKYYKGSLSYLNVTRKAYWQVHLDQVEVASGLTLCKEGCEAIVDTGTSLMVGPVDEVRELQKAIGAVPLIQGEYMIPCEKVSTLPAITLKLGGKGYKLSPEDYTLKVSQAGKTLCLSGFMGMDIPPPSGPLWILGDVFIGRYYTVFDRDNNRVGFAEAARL

Substance	degradation of soluble rat tail collagen Type I (1 hour at 37° C., SDS-Page gels, Coomassie Blue staining)
Bacterial collagenase (Sigma Chemicals)	bacterial collagenase degraded rat collagen at both pH 5.0 and pH 8.0
cathepsin D (R&D systems, activated)	Cathepsins B, D and S showed some slight degradation of rat collagen at the manufacture specified pH and no degradation of rat collagen at pH 8.0
cathepsin B (R&D systems, activated)	Cathepsins B, D and S showed some slight degradation of rat collagen at the manufacture specified pH and no degradation of rat collagen at pH 8.0
Histidine (His)-tagged purified recombinant human cathepsin-L (R&D Systems, Cat# 952-CY)	cathepsin-L was the only enzyme that was active at pH 5.0, but not at pH 8.0
